Experiment [1] has as its target T1, Plasmodium vivax cytoplasmic phenylalanyl-tRNA synthetase (PvcFRS) beta subunit (PVX_090880) (Plasmodium vivax, UniProt A5K464 1-617).
T1 construct: Said to be full-length; Tag or fusion residues from the vector are not described; Two copies stand in the α2β2 heterotetramer; also called PvcFRS β subunit; PvFRS β subunit
T1 sequence: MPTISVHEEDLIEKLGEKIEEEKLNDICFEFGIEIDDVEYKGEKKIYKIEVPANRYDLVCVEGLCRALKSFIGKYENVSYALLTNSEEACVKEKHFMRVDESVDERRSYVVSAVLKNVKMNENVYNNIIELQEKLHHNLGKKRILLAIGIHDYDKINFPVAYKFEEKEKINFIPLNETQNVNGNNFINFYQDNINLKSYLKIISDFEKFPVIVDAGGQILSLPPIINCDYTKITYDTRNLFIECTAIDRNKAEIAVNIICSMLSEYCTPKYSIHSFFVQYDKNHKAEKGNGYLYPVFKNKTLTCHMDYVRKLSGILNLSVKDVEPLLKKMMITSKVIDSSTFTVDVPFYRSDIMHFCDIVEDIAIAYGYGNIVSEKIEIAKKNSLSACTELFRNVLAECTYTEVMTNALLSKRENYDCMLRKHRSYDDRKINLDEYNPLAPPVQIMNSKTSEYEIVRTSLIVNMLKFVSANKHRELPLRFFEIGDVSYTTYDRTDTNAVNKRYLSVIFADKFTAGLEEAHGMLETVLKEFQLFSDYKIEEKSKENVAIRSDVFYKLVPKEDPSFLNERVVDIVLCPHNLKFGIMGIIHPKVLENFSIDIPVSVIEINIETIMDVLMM
Description: analytical gel filtration (Superdex 200) of co-expressed, co-purified alpha and beta subunits.

Experiment [2] deals with T2, Plasmodium falciparum cytoplasmic phenylalanyl-tRNA synthetase (PfcFRS) beta subunit (Plasmodium falciparum).
T2 construct: Tags are not described; also called PfcFRS β subunit; Pf-β
T2 chain: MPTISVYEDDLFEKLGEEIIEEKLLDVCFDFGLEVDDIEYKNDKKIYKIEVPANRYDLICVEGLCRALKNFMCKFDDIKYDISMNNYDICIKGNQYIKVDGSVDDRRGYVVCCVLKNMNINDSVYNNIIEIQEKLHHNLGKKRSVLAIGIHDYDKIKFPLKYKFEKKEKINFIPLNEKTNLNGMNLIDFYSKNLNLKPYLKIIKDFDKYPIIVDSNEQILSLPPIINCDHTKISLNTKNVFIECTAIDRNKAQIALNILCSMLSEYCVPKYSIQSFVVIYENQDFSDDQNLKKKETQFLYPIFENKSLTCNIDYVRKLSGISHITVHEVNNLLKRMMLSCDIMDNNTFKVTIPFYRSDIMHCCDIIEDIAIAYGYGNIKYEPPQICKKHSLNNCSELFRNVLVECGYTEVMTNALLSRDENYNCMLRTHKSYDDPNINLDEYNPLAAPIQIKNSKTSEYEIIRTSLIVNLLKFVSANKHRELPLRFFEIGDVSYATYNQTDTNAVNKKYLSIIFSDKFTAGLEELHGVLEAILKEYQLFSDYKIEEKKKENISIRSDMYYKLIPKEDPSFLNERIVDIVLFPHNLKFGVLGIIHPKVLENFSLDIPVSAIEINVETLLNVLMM
As to the kind of experiment: SDS-PAGE of the final purified protein (co-purification of the α and β subunits).

B1: Plasmodium vivax cytoplasmic phenylalanyl-tRNA synthetase (PvcFRS) alpha subunit (PVX_081300) (enzyme)
chain: MQAKAQEEQKGEELSQFLQALEEEFALCQEGGGDKREADGPSLENAEAEELANRRAYYLQLKEERNVLVEESKHVTSLHMSSKHNIEHAKVLGMAKKLETLYYVVNHVRSFNTYQLTEEGKEYLRDGSPEHVTLRYVMEQEGCTLEDLKKLFGKKGEIGLNINLKKKKIELRKSDKRLFPHVEGSAHSLVDETRCYLQKVEAHGNDEGALVSHLKGILPPEKGEKKEEDEANNLIKELKKRKLIEAKKISYIYIIRTNLFTKEIKKQITDLTYLLIKNEEYKKYQVKKYNFFSSGKKMNKGNIHLLIRQMRTFKDVFVSLGFEEMNTHNYVESSFWCFDALYIPQQHPSRDLQDTFFIKVPEMCQEEFTDQSYIENVKRVHSVGDYGSFGWNYQWELKSTKKNVLRTHTTANSCRALFQLAKEYQKTGSIIPKKFFSIDRVFRNENLDSTHLAEFHQVEGLIIDRNLGLSHLIGTLSAFYKYIGISKLRFKPTFNPYTEPSMEVYGYHEENKKWLEVGNSGIFRPEMLRAMGFPPEVSVIAWGLSLERPTMIKYSIRNIRDLFGYRSVI
notes: Said to be full-length; Tag residues from the vector are not described; Two copies stand in the α2β2 heterotetramer; Residues 1-270 were disordered in the crystal; also called PvcFRS α subunit; PvFRS α subunit
Take B1: the binding result in experiment [1] is “binds”.

B2: Plasmodium falciparum cytoplasmic phenylalanyl-tRNA synthetase (PfcFRS) alpha subunit (enzyme)
chain: MSTNNVEEKKNEELYNLLNILEEEFNLSKIENKNNNKNDDGDDDDVNKREDNNNNEYYKKLKDEKGLDVLINEYTTSLKISKKYNIDHNKVMGMIKKLETLYYIINLIKSFNTYHLSDEGKQYLKEGSPEFIVIKYVIQNNKCTLEDLKKNLGKIGDIGLNTNLKNRTIQLNKADKCLTCNCNLHDIQDFTQIYLDIINQYGHDEELLFAHLKNKNHTKNALNNNEMKNSCKDNNIINNLIQDLKKRKLLEIKKNSYSHVIKTSIFKKDIKKQITDINYLLLKNEEYKKYDIKKYNFFSSGKKINKGNIHLLTKQMRTFKEIFFSLGFEEMETHNYVESSFWCFDALYIPQQHPSRDLQDTFFIKEPETCIDKFVDTEYIDNIKRVHTHGDYGSFGWNYKWKLEESKKNVLRTHTTANSCRALFKLAKEYKEAGCIKPKKYFSIDRVFRNENLDSTHLAEFHQVEGLIIDKNIGLSHLIGTLAAFYKHIGIHKLKFKPTFNPYTEPSMEIYGYHEQSKKWLEVGNSGIFRPEMLRSMGFSEEVSVIAWGLSLERPTMIKYNIKNIRDLFGYKSVV
notes: Tags are not described; also called PfcFRS α subunit
As to B2, the binding result in experiment [2] was “binds”.

(Values after US20230279018A1, “AP[…] INHIBITION” (priority 2020, published 2023).)
